From patent US20090192048A1, “METHOD OF PRODUCING A […] AGENT FOR BINDING A LIGAND” (priority 2005, published 2009)
Ends that are not written are not given here.

Assays:
Type in all cases: physicochemical
[1] = Retention of peptides on Greiner polypropylene V-bottom wells; settings: 400V scan; for Untreated fluorescence: unwashed; for Retained fluorescence: washed 15 minutes in 1 M NaCl in 10 mM tris-HCl (pH 8.0)
Protocol: (§1) The retention of peptides 2DOS-1 to 2DOS-16 (see above) on polypropylene and polystyrene surfaces was compared:
(§2) 5 mM tris-HCl (pH 8.0) in 75% (v/v) aqueous acetonitrile was used as the solvent for the peptides and for TAMRA.
(§3) 20 μl aliquots of 5 μM peptides 2DOS-1 to 2DOS-16 and 5 μM TAMRA were pipetted into the wells of a Costar V-bottomed polypropylene microtitre plate, a Greiner V-bottomed polypropylene microtitre plate, and a Greiner V-bottomed polystyrene microtitre plate according to the scheme shown in FIG. 26:
(§4) The peptide samples were allowed to evaporate to dryness in the dark.
(§5) The peptide samples in the top two rows of the microtitre plates were then incubated for 15 minutes at room temperature in 250 μl of 1 M NaCl in 10 mM tris-HCl (pH 8.0).
(§6) After incubation, the wash buffer was pipetted up and down eight times in the well before removing the supernatant.
(§7) The washed and untreated peptide samples were then resuspended in 50 μl of 10 mM tris-HCl (pH 8.0) in 50% (v/v) aqueous acetonitrile.
(§8) The microtitre plates were imaged at 200 μm resolution on a Typhoon Trio Plus variable mode imager (Amersham Biosciences) with the green (532 nm) laser and the 580 BP 30 filter at the PMT voltages indicated below and at normal sensitivity. The scan height was set at +3 mm and the sample was pressed during scanning.
(§9) The fluorescence images were analysed using ImageQuant TL v2003.03 (Amersham Biosciences).

[2] = Retention of peptides on Costar polypropylene V-bottom wells; settings: 400V scan; for Untreated fluorescence: unwashed; for Retained fluorescence: washed 15 minutes in 1 M NaCl in 10 mM tris-HCl (pH 8.0)
Protocol: as §1, §2, §3, §4, §5, §6, §7, §8, §9

[3] = Retention of peptides in V-bottomed polypropylene wells; settings: V-bottom wells, 500V scan; for Untreated fluorescence: unwashed; for Retained fluorescence: washed 15 minutes in 1 M NaCl in 10 mM tris-HCl (pH 8.0)
Protocol: (§10) The retention of peptides 2DOS-1 to 2DOS-16 (see above) on polypropylene wells of different geometries was investigated:
(§11) 10 mM tris-HCl (pH 8.0) in 50% (v/v) aqueous acetonitrile was used as the solvent for the peptides and for TAMRA.
(§12) 1 μl aliquots of 10 μM peptides 2DOS-1 to 2DOS-16 and 10 μM TAMRA were pipetted into the wells of a Costar V-bottomed polypropylene microtitre plate and a Greiner flat-bottomed polypropylene microtitre plate according to the following scheme as shown in FIG. 22:
as §4
(§13) The peptide samples in the top two rows of the microtitre plates were then incubated for 15′ minutes at room temperature in 250 μl of 1 M NaCl in 10 mM tris-HCl (pH 8.0).
as §6, §7
as §8, with “the platen” for “+3 mm”, “during,” for “during”
as §9

[4] = Retention of peptides on Greiner polystyrene V-bottom wells; settings: 400V scan; for Untreated fluorescence: unwashed; for Retained fluorescence: washed 15 minutes in 1 M NaCl in 10 mM tris-HCl (pH 8.0)
Protocol: as §1, §2, §3, §4, §5, §6, §7, §8, §9

[5] = Retention of peptides 2DOS-1 to 2DOS-16 on a hydrophobic surface (polypropylene microtitre plate wells), water wash; settings: 400V scan; for Initial fluorescence (×10^3): 100 μl of 10 μM peptide before drying and washing; for Recovered fluorescence (×10^3): dried, washed ten times with 250 μl water, resuspended
Protocol: The retention of peptides 2DOS-1 to 2DOS-16 on a hydrophobic surface (the wells of a polypropylene microtitre plate) was then investigated.
as §11
100 μl aliquots of 10 μM peptides 2DOS-1 to 2DOS-16 and 10 μM TAMRA were placed in the wells of a Costar microtitre plate as shown in FIG. 13:
as §8, with “plate was” for “plates were”
The peptides were allowed to evaporate to dryness overnight in the dark and the microtitre plate was again scanned as described above.
The wells were then washed ten times with 250 μl of water.
The residual surface-bound peptides were finally resuspended in 100 μl of 10 mM tris-HCl (pH 8.0) in 50% (v/v) aqueous acetonitrile and the microtitre plate was again scanned as described above.
as §9
Quantification data (using the data from the 400V scan) is given in Table 2 and shown graphically in FIG. 15.

[6] = Retention of peptides in flat-bottomed polypropylene wells; settings: flat-bottom wells, 500V scan; for Untreated fluorescence: unwashed; for Retained fluorescence: washed 15 minutes in 1 M NaCl in 10 mM tris-HCl (pH 8.0)
Protocol: as §10, §11, §12, §4, §13, §6, §7
as §8, with “the platen” for “+3 mm”, “during,” for “during”
as §9

N-TAMRA-Asp-Phe- Asp-Phe-Asp-Phe- Asp-C ({TAMRA}-DFDFDFD) [Peptide 2DOS-14]
Percent retention [1]: 13%
Untreated fluorescence [1]: 3,612,113
Retained fluorescence [1]: 461,468
Percent retention [2]: 11%
Untreated fluorescence [2]: 5,331,894
Retained fluorescence [2]: 595,959
Percent retention [3]: 13%
Untreated fluorescence [3]: 7,641,246
Retained fluorescence [3]: 1,018,179
Percent retention [4]: 9%
Untreated fluorescence [4]: 860,811
Retained fluorescence [4]: 75,304
Initial fluorescence (×10^3) [5]: 28,071 ×10^3
Recovered fluorescence (×10^3) [5]: 283 ×10^3
Percent retention [6]: 4%
Untreated fluorescence [6]: 15,090,582
Retained fluorescence [6]: 670,341

N-TAMPA-Asp-Asp- Asp-Ala-Asp-Ser- Asp-Lys-Asp-C ({TAMRA}-DDDADSDKD) [Peptide 2DOS-4]
Percent retention [1]: 1%
Untreated fluorescence [1]: 3,937,734
Retained fluorescence [1]: 50,669
Percent retention [2]: 1%
Untreated fluorescence [2]: 5,661,181
Retained fluorescence [2]: 74,143
Percent retention [3]: 2%
Untreated fluorescence [3]: 8,265,596
Retained fluorescence [3]: 159,080
Percent retention [4]: 1%
Untreated fluorescence [4]: 783,885
Retained fluorescence [4]: 6,714
Initial fluorescence (×10^3) [5]: 32,313 ×10^3
Recovered fluorescence (×10^3) [5]: 0 ×10^3
Percent retention [6]: 2%
Untreated fluorescence [6]: 11,885,905
Retained fluorescence [6]: 198,507

N-TAMPA-Asp-Asp- Ala-Asp-Ser-Asp- Lys-C ({TAMRA}-DDADSDK) [Peptide 2DOS-8]
Percent retention [1]: 2%
Untreated fluorescence [1]: 3,903,470
Retained fluorescence [1]: 80,770
Percent retention [2]: 1%
Untreated fluorescence [2]: 6,587,741
Retained fluorescence [2]: 93,455
Percent retention [3]: 2%
Untreated fluorescence [3]: 10,130,734
Retained fluorescence [3]: 202,943
Percent retention [4]: 1%
Untreated fluorescence [4]: 842,984
Retained fluorescence [4]: 5,071
Initial fluorescence (×10^3) [5]: 33,615 ×10^3
Recovered fluorescence (×10^3) [5]: 3 ×10^3
Percent retention [6]: 4%
Untreated fluorescence [6]: 17,576,485
Retained fluorescence [6]: 637,350

N-TAMPA-Norleu- Asp-Norleu-Asp- Norleu-Asp-Norleu- Asp-Norleu-C [Peptide 2DOS-9]
Percent retention [1]: 12%
Untreated fluorescence [1]: 3,621,913
Retained fluorescence [1]: 439,252
Percent retention [2]: 17%
Untreated fluorescence [2]: 7,102,251
Retained fluorescence [2]: 1,184,648
Percent retention [3]: 14%
Untreated fluorescence [3]: 11,662,691
Retained fluorescence [3]: 1,608,482
Percent retention [4]: 10%
Untreated fluorescence [4]: 626,304
Retained fluorescence [4]: 62,023
Initial fluorescence (×10^3) [5]: 34,587 ×10^3
Recovered fluorescence (×10^3) [5]: 2,382 ×10^3
Percent retention [6]: 16%
Untreated fluorescence [6]: 13,456,698
Retained fluorescence [6]: 2,148,849
